# Patent US8911953B2, “TDF-related compounds and analogs thereof, analogs and bioactive fragments” (Thrasos Innovation, Inc., priority 2005, dated 2014)
# “Also recorded” adds a separate entry of the source.
# B1: BMP-6: bone morphogenetic protein BMP-6 (Vgr-1) (protein, UniProt P22004 375-513, looked up)
# Bone morphogenetic protein 6: SASSRRRQQSRNRSTQSQDVARVSSASDYNSSELKTACRKHELYVSFQDLGWQDWIIAPKGYAANYCDGECSFPLNAHMNATNHAIVQTLVHLMNPEYVPKPCCAPTKLNAISVLYFDDNSNVILKKYRNMVVRACGCH
# Assays:
# [1] = tested on: PC-3; assay: Cancer cell proliferation, tritiated thymidine incorporation; assay type: cell-based, human; details: PC-3 cultured in vitro
# Excerpt: (§1) TDFRP Compound Inhibition of LNCaP Cancer Cell Proliferation. BMP-6 and a TDFRP compound (SEQ ID NO:45) inhibited the proliferation of prostate cancer cells (LNCaP and PC-3) cultured in vitro as detected by the incorporation of tritiated thymidine (a measure of cell proliferation.
# (§2) Prostate cancer is one of the most common cancers in men. […] Moreover, it has been shown that BMP signals inhibit the growth and the proliferation of human prostate tumor cells by upregulating the cyclin-dependent kinase inhibitor (CDKI) p21 (CIP1/WAF1) and decreasing the activity of Cdk2, leading to hypophosphorylation of Rb proteins. TDFRP compounds have been screened in in vitro prostate and bladder cancer bioassays to assess growth inhibitory activity of the compounds (FIG. 3). ^3H-thymidine incorporation is used as a marker for cell proliferation activity in human prostate and bladder cancer cell lines. Cisplatin inhibits ^3H-thymidine incorporation, indicating a tumor-growth suppressive activity of cisplatin in both human prostate and bladder cancer cells. TDFRP compounds are assayed in these cancer cells for the ability to induce receptor-regulated Smad 1/5 phosphorylation in a dose-dependent manner (FIG.).
# as §2, with “(FIGS. 3, 28).” for “(FIG. 3).”, “(FIGS. 3, 28).” for “(FIG.).”
# [2] = tested on: LNCaP; assay: as above; assay type: cell-based, human; details: LNCaP cultured in vitro
# Excerpt: as §1, §2
# as §2, with “(FIGS. 3, 28).” for “(FIG. 3).”, “(FIGS. 3, 28).” for “(FIG.).”
# [3] = tested on: LNCaP human prostate cancer cells; assay: Smad phosphorylation in LNCaP prostate cancer cells (Western blot); assay type: cell-based; details: single agent, cultured LNCaP cells
# Protocol: The detection of Smad phosphorylation by Western analysis, for example in LNCaP (prostate cancer cells) or EC (vascular endothelial cells) in culture medium can be examined after exposure to varying concentrations of TDFRP or control compounds. BMP-7 serves as a positive control. Cells are lysed in RIPA lysis buffer (50 mM Tris-HCl at pH 8.0, 150 mM NaCl, 1% NP-40, 0.5% sodium deoxycholate, 0.1% SDS) containing 1 mM PMSF, 1 mM sodium orthovanadate, and 10 ug/mL proteinase inhibitor cocktail. Lysates are incubated on ice for 15 minutes, centrifuged, and transferred supernatant to a clean tube. 50 to 100 ug is used for analysis by SDS-PAGE. Resolved proteins are electro transferred onto PVDF membrane. The blot is blocked by incubating in 3% non-fat dry milk prepared in PBS at room temperature for 1 hour with constant slow agitation. The blot is incubated with 1-2 ug/mL of primary antibody (rabbit anti-phospho-Smad 1) prepared in PBS-milk, overnight with agitation at 4 degree C., washed twice with PBS, and incubated with secondary antibody (anti rabbit HRP conjugated IgG, 1:3000 dilution) at room temperature for 2 hours with agitation. After washing in PBS-0.05% Tween 20 for 5 minutes and rinsing, Smad phosphorylation is detected via an HRP reaction according to manufacturer's instructions (FIGS. 2, 3, 18, 2X).
# For detection of Smad phosphorylation by Western analysis, LNCaP (prostate cancer cells) or EC (vascular endothelial cells) in culture medium are exposed to varying concentrations of TDFRP or control compounds. BMP-7 served as a positive control. Cells are lysed in RIPA lysis buffer (50 mM Tris-HCl at pH 8.0, 150 mM NaCl, 1% NP-40, 0.5% sodium deoxycholate, 0.1% SDS) containing 1 mM PMSF, 1 mM sodium orthovanadate, and 10 ug/mL proteinase inhibitor cocktail. Lysates are incubated on ice for 15 minutes, centrifuged, and transferred supernatant to a clean tube. 50 to 100 ug is used for analysis by
# SDS-PAGE. Resolved proteins are electro transferred onto PVDF membrane. The blot is blocked by incubating in 3% non-fat dry milk prepared in PBS at room temperature for 1 hour with constant slow agitation. The blot is incubated with 1-2 ug/mL of primary antibody (rabbit anti-phospho-Smad 1) prepared in PBS-milk, overnight with agitation at 4 degree C., washed twice with PBS, and incubated with secondary antibody (anti rabbit HRP conjugated IgG, 1:3000 dilution) at room temperature for 2 hours with agitation. After washing in PBS-0.05% Tween 20 for 5 minutes and rinsing, Smad phosphorylation is detected via an HRP reaction according to manufacturer's instructions (FIGS. 3, 27).
# BMP signaling molecules co-administered with TDFRP compounds show synergistic or enhanced downstream signaling as detected by Smad phosphorylation. Smad phosphorylation was assessed by Western analysis in LNCaP (prostate cancer cells) or EC (vascular endothelial cells) cells in culture medium exposed to varying concentrations of TDFRP or control compounds. BMP-7 served as a positive control. Cells are lysed in RIPA lysis buffer (50 mM Tris-HCl at pH 8.0, 150 mM NaCl, 1% NP-40, 0.5% sodium deoxycholate, 0.1% SDS) containing 1 mM PMSF, 1 mM sodium orthovanadate, and 10 ug/mL proteinase inhibitor cocktail. Lysates are incubated on ice for 15 minutes, centrifuged, and transferred supernatant to a clean tube. 50 to 100 ug is used for analysis by SDS-PAGE. Resolved proteins are electro transferred onto PVDF membrane. […]
molecule,measurement,setting,value
B1,proliferation (incorporation of tritiated thymidine),[1],inhibited
same,proliferation (incorporation of tritiated thymidine),[2],inhibited
same,Smad phosphorylation and activation,[3],"induced; also recorded: Smad 1, 5, 8 phosphorylation and activation"
